Results as given in US20240133885A1.

Columns and labels:
[1] = target: J6MO-(vL-vH)-MYC-28z-T2A-Pac; assay: NLuc assay, supernatant on NK92MI cells expressing the CAR (no CAR 89)
[2] = target: HIV1 envelop glycoprotein gp120 (HIV1); assay: Luc assay, supernatant on HL2/3 cells expressing HIV1 gp120 (control 5700)
Lym1 [3] = assay: Luc assay, supernatant on BC-1 cells
Lym1 [4] = assay: Luc assay, supernatant on BC-3 cells
Lym1 [5] = assay: Luc assay, supernatant on MM1S cells
Lym1 [6] = assay: Luc assay, supernatant on Raji cells
Lym1 [7] = assay: Luc assay, supernatant on U266 cells
Lym1 [8] = assay: Luc assay, supernatant on BV173 cells
Lym1 [9] = assay: Luc assay, supernatant on JSC-1 cells
Lym1 [10] = assay: Luc assay, supernatant on BCBL-1 cells
[11] = target: CD20-GA10-(vL-vH)-MYC-BBz-T2A-PAC; assay: Luc assay, supernatant on Jurkat cells expressing the CAR (parental 484)
[12] = target: CD20-GA10-(vL-vH)-MYC-BBz-T2A-PAC; assay: Luc assay, supernatant on NK92MI cells expressing the CAR (parental 510)
[13] = target: CD200R-huDx182-(vL-vH)-Myc-BBz-T2A-PAC; assay: NLuc assay, supernatant on 293FT cells transfected with the CAR
[14] = target: FMC63-(vL-vH)-Myc-BBz-T2A-Pac; assay: as above
Amyloid [15] = assay: Luc assay, supernatant on BC-3 cells
Amyloid [16] = assay: Luc assay, supernatant on MM1S cells
Amyloid [17] = assay: Luc assay, supernatant on U266 cells
Amyloid [18] = assay: Luc assay, supernatant on BV173 cells
Amyloid [19] = assay: Luc assay, supernatant on JSC-1 cells
Amyloid [20] = assay: Luc assay, supernatant on BCBL-1 cells

## BCMA-ECD-GGSG-NLuc-4xFlag-2xStreptag-8xHis-T2A-Pac (from UniProt Q02223 1-54) (receptor)
[1]
  Mean Luc activity: 602

## CD8SP-HIV1-3BNC117-(vL-vH)-GGSG-NLuc-4xFLAG-x2STREP-8xHis-T2A-PAC (scFv)
[2]
  Mean Luc activity: 8870

## CD8SP-HIV1-VR-C01-(vL-vH)-GGSG-NLuc-4xFLAG-x2STREP-8xHis-T2A-PAC (scFv)
[2]
  Mean Luc activity: 9330

## CD8SP-HIV1-X5-(vL-vH)-GGSG-NLuc-4xFLAG-x2STREP-8xHis-T2A-PAC (scFv)
[2]
  Mean Luc activity: 12900

## CD8SP-Lym1(vL-vH)-GGSG-NLuc-AcV5 (scFv)
Lym1 [3]
  MEAN LUC ACTIVITY: 7390
Lym1 [4]
  Luc activity: 11700
  MEAN LUC ACTIVITY: 11700
Lym1 [5]
  Luc activity: 1580
  MEAN LUC ACTIVITY: 1580
Lym1 [6]
  MEAN LUC ACTIVITY: 580000
Lym1 [7]
  Luc activity: 258
  MEAN LUC ACTIVITY: 258
Lym1 [8]
  Luc activity: 5560
  MEAN LUC ACTIVITY: 5560
Lym1 [9]
  Luc activity: 6770
  MEAN LUC ACTIVITY: 6770
Lym1 [10]
  Luc activity: 7780
  MEAN LUC ACTIVITY: 7780

## CD20-ECx2-ECD-GGSG-TurboLuc16-4xFlag-2xStreptag-8xHis-T2A-Pac (receptor)
[11]
  Mean Luc activity: 7610
[12]
  Mean Luc activity: 1420

## CD200R-ECD-GGSG-NLuc-4xFlag-2xStreptag-8xHis-T2A-Pac (receptor)
[13]
  Mean Luc activity: 18700

## SLAMF7-CS1-ECD-GGSG-NLuc-4xFlag-2xStreptag-8xHis-T2A-Pac (receptor)
[14]
  Mean Luc activity: 37800

## SP-Amyloid-158-(vL-vH)-GGSG-NLuc-4xFLAG-x2STREP-8xHis-T2A-PAC (scFv)
Amyloid [15]
  Luc activity: 3110
Amyloid [16]
  Luc activity: 8170
Amyloid [17]
  Luc activity: 3930
Amyloid [18]
  Luc activity: 6220
Amyloid [19]
  Luc activity: 8230
Amyloid [20]
  Luc activity: 5690
